According to paper PMC5437283:

Experiments:
Conditions in all cases: remark: other sources report otherwise
[1] = molecular target: T1, wildtype pneumolysin (PLYWT) (Streptococcus pneumoniae), P0C2J9; assay: electron cryo-tomography with subtomogram averaging; pores: preformed cholesterol-containing liposomes incubated with PLY (1 mg/ml) at 37°C for 30-180 min; subtomogram average at 27 Å
T1 chain: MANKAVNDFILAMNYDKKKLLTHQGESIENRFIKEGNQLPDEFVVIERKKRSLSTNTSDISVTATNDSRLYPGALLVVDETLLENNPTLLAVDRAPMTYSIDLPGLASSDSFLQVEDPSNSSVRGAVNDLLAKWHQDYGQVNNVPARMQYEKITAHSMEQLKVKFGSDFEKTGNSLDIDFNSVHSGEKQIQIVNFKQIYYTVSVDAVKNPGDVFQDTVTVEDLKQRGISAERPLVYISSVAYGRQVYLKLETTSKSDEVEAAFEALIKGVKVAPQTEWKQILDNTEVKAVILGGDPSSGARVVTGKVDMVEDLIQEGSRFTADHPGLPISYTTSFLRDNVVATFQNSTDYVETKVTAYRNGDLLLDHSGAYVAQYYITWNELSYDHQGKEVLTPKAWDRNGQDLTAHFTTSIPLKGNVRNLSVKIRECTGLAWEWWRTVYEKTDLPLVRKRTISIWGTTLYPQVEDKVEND

[2] = molecular target: T1, wildtype pneumolysin (PLYWT) …; assay: electron cryo-tomography with subtomogram averaging; prepores: preformed cholesterol-containing liposomes incubated with PLY (1 mg/ml) at room temperature for 30 min; subtomogram average at 22 Å
[3] = molecular target: T1, wildtype pneumolysin (PLYWT) …; assay: cryo-EM structure; single-particle cryoEM of PLY pore complexes formed on DOPC/cholesterol liposomes (37°C, 30 min), solubilised with 0.56% Cymal-6 and exchanged into amphipol A8-35; 50 mM Tris-HCl pH 7.0, 150 mM NaCl, 5 mM β-mercaptoethanol; 42-fold symmetry, 4.5 Å

B1: wildtype pneumolysin (PLYWT), P0C2J9 1-471 (natural protein)
chain: MANKAVNDFILAMNYDKKKLLTHQGESIENRFIKEGNQLPDEFVVIERKKRSLSTNTSDISVTATNDSRLYPGALLVVDETLLENNPTLLAVDRAPMTYSIDLPGLASSDSFLQVEDPSNSSVRGAVNDLLAKWHQDYGQVNNVPARMQYEKITAHSMEQLKVKFGSDFEKTGNSLDIDFNSVHSGEKQIQIVNFKQIYYTVSVDAVKNPGDVFQDTVTVEDLKQRGISAERPLVYISSVAYGRQVYLKLETTSKSDEVEAAFEALIKGVKVAPQTEWKQILDNTEVKAVILGGDPSSGARVVTGKVDMVEDLIQEGSRFTADHPGLPISYTTSFLRDNVVATFQNSTDYVETKVTAYRNGDLLLDHSGAYVAQYYITWNELSYDHQGKEVLTPKAWDRNGQDLTAHFTTSIPLKGNVRNLSVKIRECTGLAWEWWRTVYEKTDLPLVRKRTISIWGTTLYPQVEDKVEND
Work on B1 yielded a stoichiometry N [1] of 34 subunits, a stoichiometry N [2] of 34 subunits and a stoichiometry N [3] of 42 subunits.
